Target: STAM1-His (signal-transducing adaptor molecule 1, wild type) (UniProt Q92783)

βarrestin1 (untagged, wild type) (from UniProt P49407 1-418) (natural protein)
in vitro ubiquitination of STAM1 by AIP4 with βarr1 at 0-320 nM, 90 min at 37 °C; EC50 for βarr1 from the STAM1 immunoblots: 48.7 nM
in vitro ubiquitination of STAM1 by AIP4 with βarr1 at 0-320 nM, 90 min at 37 °C; EC50 for βarr1 from the ubiquitin immunoblots: 49.8 nM
